Test results taken from patent US6613506B1, “Compositions and methods for inhibiting human immunodeficiency virus infection by down-regulating human cellular genes” (Subsidiary No. 3, Inc., priority 2000, dated 2003).

System: HIV-1IIIB
Assay: Selection of GSEs from HeLa cell library using productive infection of CEM-ss cells
Type: cell-based
Experimental: Additionally, a normalized RFE library made from HeLa cells was transferred into CEM-ss cells and the neo resistant population was infected with TCID50 of 3000/10^6 cells of HIV-1IIIB. This RFE library was represented by 50×10^6 independent recombinant clones. Four and seven days after infection, a purified anti-CD4 monoclonal antibody, L77 (available from Becton Dickinson), was added at 5 Φg/mL to prevent syncytia formation. Syncytia formation is thought to be prevented by blocking the interaction between gp120 expressed on the surface of an infected cell and CD4 on the surface of an uninfected cell. […] At 10-12 days after infection, CD4^+, p24^− cell population representing uninfected cells were sorted. Genomic DNA from the CD4^+, p24^− cells was purified and used for PCR amplification of inserts with the vector-derived primers. The amplified mixture was digested with EcoRI and BamHI and cloned back into the retroviral vector. The selection was repeated for additional rounds.
The selection of GSEs from HeLa cell library using productive infection of CEM-ss cells isolated […] additional nucleic acid molecules which have substantial sequence identity with other cellular genes.
The selection of GSEs from a HeLa cell library using productive infection of CEM-ss cells isolated 21 additional nucleic acid molecules which have substantial sequence identity with other cellular genes. […] The complement of SEQ ID NO:25 is represented by SEQ ID NO:26. […] The complement of SEQ ID NO:27 is represented by SEQ ID NO:28. […] The complement of SEQ ID NO:29 is represented by SEQ ID NO:30. […] The complement of SEQ ID NO:31 is represented by SEQ ID NO:32. […] The complement of SEQ ID NO:33 is represented by SEQ ID NO:34. […] The complement of SEQ ID NO:35 is represented by SEQ ID NO:36. […] The complement of SEQ ID NO:37 is represented by SEQ ID NO:38. […] The complement of SEQ ID NO:39 is represented by SEQ ID NO:40. […] The complement of SEQ ID NO:41 is represented by SEQ ID NO:42. […] The complement of SEQ ID NO:43 is represented by SEQ ID NO:44. […] The complement of SEQ ID NO:45 is represented by SEQ ID NO:46. […] The complement of SEQ ID NO:47 is represented by SEQ ID NO:48. […] The complement of SEQ ID NO:49 is represented by SEQ ID NO:50. […] The complement of SEQ ID NO:51 is represented by SEQ ID NO:52. […] The complement of SEQ ID NO:53 is represented by SEQ ID NO:54. […] The complement of SEQ ID NO:55 is represented by SEQ ID NO:56. […] The complement of SEQ ID NO:57 is represented by SEQ ID NO:58. […] The complement of SEQ ID NO:59 is represented by SEQ ID NO:60. […] The complement of SEQ ID NO:61 is represented by SEQ ID NO:62. […] The complement of SEQ ID NO:77 is represented by SEQ ID NO:78. […] The complement of SEQ ID NO:87 is represented by SEQ ID NO:88. […] The complement of SEQ ID NO:99 is represented by SEQ ID NO:100. […] The complement of SEQ ID NO:101 is represented by SEQ ID NO:102. […] The complement of SEQ ID NO:103 is represented by SEQ ID NO:104. […] The complement of SEQ ID NO:105 is represented by SEQ ID NO: 106. […] The complement of SEQ ID NO:107 is represented by SEQ ID NO:108. […] The complement of SEQ ID NO:109 is represented by SEQ ID NO:110. […] The complement of SEQ ID NO:111 is represented by SEQ ID NO:112. […] The complement of SEQ ID NO:113 is represented by SEQ ID NO:114. […] The complement of SEQ ID NO:115 is represented by SEQ ID NO:116. […] The complement of SEQ ID NO:117 is represented by SEQ ID NO:118.

B1: CF-630: GSE, SEQ ID NO:59, antisense; p40 protein gene (nucleic acid, listed as Homo sapiens)
antisense: GCTTAGAGTATGGAGAACATGGATGCAGAACACCAGACACCCCTTTCTCTCTCTTTGAAGGAATGGCTGGAACAATATATTTCCTGGCTGACCTGCTAGTCCCCACAAAAGCCAGGTTCG
modifications: chemistry not fully specified
notes: p40 protein gene
HIV-suppressive activity of the GSE and active orientation: interferes with HIV replication as an antisense molecule

B2: CF-619: GSE, SEQ ID NO:53, sense; Arg/Abl interacting protein (ArgBP2A) gene (nucleic acid, listed as Homo sapiens)
sense: GTTCCACCTCCAGTCCCGCCGCTTCGACCAAGAGATCGGTCTTCAACAGAAAAGCATGACTGGGATCCTCCAGA
modifications: chemistry not fully specified
HIV-suppressive activity of the GSE and active orientation: interferes with HIV replication in the sense orientation

B3: CF-322: GSE, SEQ ID NO:31, sense; anti-proliferative factor (BTG-1) gene (nucleic acid, listed as Homo sapiens)
sense: CGACAGCTGCAGACCTTCAGCCAGAGCCTGCAGGAGCTGCTGGCAGAACATTATAAACATCACTGGTTCCCAGAAAA
HIV-suppressive activity of the GSE and active orientation: interferes with HIV replication in the sense orientation

B4: CF-50: GSE, SEQ ID NO:39, sense; squalene synthetase gene (nucleic acid, listed as Homo sapiens)
sense: AAGTGAAATGCAGGTGAGAAGAACCTAAACATGAAAGGAAAGGGTGCCTCATCCCAGCAACCTGTCCTTGTGGGTGATGATCACTGTGCTGCTTGTGGCTCATGGCAGAGCATTCAGTGCCAA
modifications: chemistry not fully specified
notes: squalene synthetase gene
HIV-suppressive activity of the GSE and active orientation: exhibits its HIV-suppressive activities in the sense orientation

B5: H1C-37E11: GSE, SEQ ID NO:115, antisense; human cathepsin L gene (nucleic acid, listed as Homo sapiens)
antisense: GTCGACCTTCCTCTTTACCGTCCACCAGCTCACACAGTGGGGTAGCTGGCTGCTGAGGCAATTCCACAATGGTTTCTCT
HIV-suppressive activity of the GSE and active orientation: interferes with HIV replication as an antisense molecule

B6: H1C-23G2: GSE, SEQ ID NO:113, antisense; human CTSB gene (nucleic acid, listed as Homo sapiens)
antisense: GCCGGTGGCTCACATGGCCTGTCTGCACTGTAACCACAGGCTGGGATGTAGCCAGGACTTGGTCTCCTTGGAAGACAGGTCTGATGTTTGGCCAATCCAGTCCTTCAGACCCTGTCTGAAACTTGTA
HIV-suppressive activity of the GSE and active orientation: interferes with HIV replication as an antisense molecule

B7: CF-287: GSE, SEQ ID NO:77, sense; Na+-D-glucose cotransport regulator gene (nucleic acid, listed as Homo sapiens)
sense: CAGGTTGTCTTTAAGATGTTCTTTTAGACAGCTGCACATTGTAGACCCTTTCACCTGCCCTACACCAAAGATGTACGATGCACTAGGAAACTGCTCATAGGATTTCTGTCAGCT
HIV-suppressive activity of the GSE and active orientation: interferes with HIV replication in a sense orientation

B8: CF-622: GSE, SEQ ID NO:87, antisense; Rox gene (nucleic acid, listed as Homo sapiens)
antisense: GGAAAAAAAAAAAAACTACAAAAACCCTAATTTTGTACATACTGTATTTTTACTATTGAACTGTATTCTAGTGGCTGTTCATGCTCCAAGACTTTAGTTACCGAGACATGAATACTATCCATG
modifications: chemistry not fully specified
notes: Rox gene
HIV-suppressive activity of the GSE and active orientation: interferes with HIV replication as an antisense molecule

B9: CF-320: GSE, SEQ ID NO:27, sense; double-strand break DNA repair gene (nucleic acid, listed as Homo sapiens)
sense: GCCTGCACATGACGATATGGATGAGGATGATAATGTATCAATGGGTGGGCCTGATAGTCCTGATTCAGTGGATCCCGT
HIV-suppressive activity of the GSE and active orientation: interferes with HIV infection in the sense orientation

B10: H1C-16A3: GSE, SEQ ID NO:101, antisense; human GNB2L1 gene (nucleic acid, listed as Homo sapiens)
antisense: AGGCGGAGAGGATCATGTCCGGGAACTGCGGGGTAGTAGCGATCTGGGTTACCCAGCCGTTGTGGCCCTTGAGGGTGCCACGAAGGGTCATCTGCTCA
HIV-suppressive activity of the GSE and active orientation: interferes with HIV replication as an antisense molecule

B11: CF-335: GSE, SEQ ID NO:35, antisense; protein phosphatase 2A gene (nucleic acid, listed as Homo sapiens)
antisense: GGTAAGGGTAGGGCACTTTTAATTTAAATGACTTCTTGCACCATCTTGCCTAATGGACTAGATTGGACTGTATCAACATTGATTTACTC
modifications: chemistry not fully specified
notes: protein phosphatase 2A gene
HIV-suppressive activity of the GSE and active orientation: interferes with HIV replication as an antisense molecule

B12: H1C-2F9: GSE, SEQ ID NO:103, antisense; ArgRS gene (nucleic acid, listed as Homo sapiens)
antisense: ATACTTTAATTTTAAATTTTCTTCTTGTAACTGCTCCAAATTCGGAGAAGCTCCTAAACAGCCACAGTTTTTCAACCGGTCAATTTCAGCAGTCAGAGATTTAATCTCTTCTTCCTGCTGCAGCAGCCGCGCGGAGCACTCAGACATCAGTACGTCCATCCTCCCATCAGCG
HIV-suppressive activity of the GSE and active orientation: interferes with HIV replication as an antisense molecule

B13: CF-624: GSE, SEQ ID NO:57, sense; p18 protein gene (nucleic acid, listed as Homo sapiens)
sense: TGTTCTGAGAACTGACTTTCTCCCCATCCCCTTCCTAAATATCCAAAGACTGTACTGGCCAGTGTCATTTTATTTTTTCCCTCCTGACAAT
modifications: chemistry not fully specified
notes: p18 protein gene
HIV-suppressive activity of the GSE and active orientation: interferes with HIV replication in a sense orientation

B14: CF-547: GSE, SEQ ID NO:51, antisense; recepin endoprotease gene (nucleic acid, listed as Homo sapiens)
antisense: ACAGAAGGAGAGACCGAATACAAATTTGAATGGCAGAAAGGAGCCCCACGAGAAAAATATGCCAAAGATGACATGAACATCAGAGATCAGCCCTTTA
modifications: chemistry not fully specified
notes: recepin endoprotease gene
HIV-suppressive activity of the GSE and active orientation: interferes with HIV replication as an antisense molecule

B15: H1C-16E3: GSE, SEQ ID NO:111, antisense; FYN gene (nucleic acid, listed as Homo sapiens)
antisense: TTTCTCGCTTGTATTCCTGAAGATGAGTTTGGCCCTGTGACTCTGAAGGGTCGGCTATTAACTGAGACATCCTCTGTCGGGTTGCCCCCCGTGTTATATTTCGCCATGAGGGACTTTACATCTGCCTTTCCATCCTACAAACATAGGGAACAAAAAATAGCTGAGAGACA
HIV-suppressive activity of the GSE and active orientation: interferes with HIV replication as an antisense molecule

B16: CF-579: GSE, SEQ ID NO:61, sense; glucosidase alpha II gene (nucleic acid, listed as Homo sapiens)
sense: AGTTGGTATCAATGGAGTGGGAGAGGTGAGGAGATCACAAGAGGAATTTGGAGCCCAGGGTCAGCCCTCTCATCCTGCCCAAATGTTGGCAGAATCTGGGTCTTAGACTAGCATAAGTGAAGTCTGGGGAGGGCCGAAC
HIV-suppressive activity of the GSE and active orientation: interferes with HIV replication in a sense orientation

B17: H1C-6G5: GSE, SEQ ID NO:117, antisense; human glutaredoxin gene (nucleic acid, listed as Homo sapiens)
antisense: TTTAAAGGGACAGCTTCGAAGACATTTCCATCTGGTATACTTCACTAGTTAGCAATGCCCAGGAATGC
HIV-suppressive activity of the GSE and active orientation: interferes with HIV replication as an antisense molecule

B18: H1C-11H9: GSE, SEQ ID NO:99, antisense; human SHIP gene (nucleic acid, listed as Homo sapiens)
antisense: GGAACTCCAGGTAGAATTTGGTCTGGGACTTGGTCTTCAATGTGGCATAGCACCTGAGAAACTCAAT
HIV-suppressive activity of the GSE and active orientation: interferes with HIV replication as an antisense molecule

B19: CF-42: GSE, SEQ ID NO:37, sense; squalene synthetase gene (nucleic acid, listed as Homo sapiens)
sense: TGGCTGGGACCTTTAGGAAAGTGAAATGCAGGTGAGAAGAACCTAAACATGAAAGGAAAGGGTGCCTCATCCCAGCAACCTGTCCTTGTGGGTGATGATCACTGTGCTGCTTGTGGCTCAT
modifications: chemistry not fully specified
notes: squalene synthetase gene
HIV-suppressive activity of the GSE and active orientation: interferes with HIV replication in the sense orientation
